From patent US20240254222A1 (Bayer, published 2024)

Key:
[1] = biological target: T1, human wild-type Sema3A of SEQ ID NO: 600, expressed by HEK293 cells (human, UniProt Q14563 22-771, limits assumed); assay: cell-based or functional assay
T1 sequence: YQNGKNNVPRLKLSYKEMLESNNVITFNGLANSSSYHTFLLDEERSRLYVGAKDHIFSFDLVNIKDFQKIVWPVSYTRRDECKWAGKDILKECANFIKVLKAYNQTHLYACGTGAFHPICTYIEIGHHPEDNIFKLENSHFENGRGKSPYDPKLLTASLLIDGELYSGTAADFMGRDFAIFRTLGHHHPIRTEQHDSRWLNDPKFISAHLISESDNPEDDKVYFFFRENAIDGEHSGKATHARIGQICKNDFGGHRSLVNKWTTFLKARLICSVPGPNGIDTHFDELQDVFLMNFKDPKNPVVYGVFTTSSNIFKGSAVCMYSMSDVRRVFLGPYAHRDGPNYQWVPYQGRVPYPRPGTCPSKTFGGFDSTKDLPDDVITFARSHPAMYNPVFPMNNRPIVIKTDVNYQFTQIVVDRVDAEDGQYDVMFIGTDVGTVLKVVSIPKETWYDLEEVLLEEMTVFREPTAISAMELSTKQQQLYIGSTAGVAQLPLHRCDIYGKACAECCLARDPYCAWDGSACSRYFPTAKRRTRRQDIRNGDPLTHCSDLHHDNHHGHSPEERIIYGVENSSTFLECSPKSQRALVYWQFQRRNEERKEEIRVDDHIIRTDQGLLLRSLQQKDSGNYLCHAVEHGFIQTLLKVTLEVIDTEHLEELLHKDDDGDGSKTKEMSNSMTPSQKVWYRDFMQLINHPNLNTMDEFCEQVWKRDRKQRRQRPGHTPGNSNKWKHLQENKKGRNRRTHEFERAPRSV

[2] = biological target: T2, Human Semaphorin3A-Sema Domain, TPP-19068 (human, UniProt Q14563 21-569); assay: SPR, 100 nM TPP-19068, binding experiment
T2 construct: produced inhouse in HEK293-6E; also called human monovalent Sema3A domain
T2 sequence: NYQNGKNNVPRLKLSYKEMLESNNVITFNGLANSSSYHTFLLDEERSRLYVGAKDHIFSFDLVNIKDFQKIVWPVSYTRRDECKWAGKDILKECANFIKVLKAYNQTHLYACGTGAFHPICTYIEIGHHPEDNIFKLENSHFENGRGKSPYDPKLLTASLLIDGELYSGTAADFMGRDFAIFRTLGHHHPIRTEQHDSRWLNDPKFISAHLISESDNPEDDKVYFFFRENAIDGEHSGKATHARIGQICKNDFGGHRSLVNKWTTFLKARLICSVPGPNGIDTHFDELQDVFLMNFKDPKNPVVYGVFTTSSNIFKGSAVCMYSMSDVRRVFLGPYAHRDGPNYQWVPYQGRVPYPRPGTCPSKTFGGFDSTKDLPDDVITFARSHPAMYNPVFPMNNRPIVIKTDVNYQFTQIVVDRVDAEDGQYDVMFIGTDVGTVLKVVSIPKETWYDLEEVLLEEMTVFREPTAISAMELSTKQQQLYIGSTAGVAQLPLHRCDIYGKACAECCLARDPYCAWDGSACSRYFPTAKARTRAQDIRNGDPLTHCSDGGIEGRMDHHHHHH
Protocol: To assess the binding kinetics and affinity of anti-Sema3A antibodies as well as their species cross-reactivity profile, binding assays were conducted using surface plasmon resonance (SPR). Binding assays were performed on a Biacore T200 instrument or on a Biacore 8K+ instrument (Cytiva) at 25° C. using assay buffer HBS P+, 300 mM NaCl, 0.75 mM CaCl₂, 2.5 mM MgCl₂, 1 mg/ml BSA, 0.05% NaN₃. Antibodies were captured either via anti-human Fc IgGs (“Human antibody capture kit”, Order No. BR100839, Cytiva) or in case of Fc-tagged analytes by anti-human Fab IgGs (“Human Fab capture kit”, Order No. 28958325, Cytiva) covalently amine coupled to a Series S CM5 sensor chip (Cytiva). The amine coupling was carried out according to the manufacturer's instructions using 1-ethyl-3-(3-dimethylaminopropyl) carbodiimide hydrochloride (EDC), N-hydroxysuccinimide (NHS) and ethanolamine HCl, pH 8.5 (“Amine Coupling Kit” BR-1000-50, Cytiva.). For phage display hits Fc-tagged human and mouse Sema3A was used as analytes in a concentration range from 1.56-200 nM. Human, mouse, cynomolgus, rat, dog and pig monovalent Sema3A domain were used as analytes in a concentration series from […] in multi cycle kinetics mode or in 100 nM for binding analysis only. The sensor surface was regenerated with glycine pH 2.0 after each antigen injection. Obtained sensorgrams were double referenced (subtraction of reference flow cell signal and buffer injection) and were fitted to a 1:1 Langmuir binding model to derive kinetic data using the Biacore T200 Evaluation software.

[3] = biological target: T3, Human Semaphorin3A-Fc (R&D Systems), TPP-13211 (human); assay: ELISA, signal on TPP-13211 divided by signal on TPP-19068
T3 construct: R&D Systems 1250-S3; also called recombinant human Sema3A-Fc chimera
From the text: In the in vivo situation Sema3A exists in both forms side by side.

[4] = biological target: T3, Human Semaphorin3A-Fc (R&D Systems), …; assay: cell-based or functional assay
[5] = biological target: T1, human wild-type Sema3A of SEQ ID NO: …; assay: cell-based or functional assay; remark: listed apart in the source

T3 sequence (chain, as listed by the source limits assumed): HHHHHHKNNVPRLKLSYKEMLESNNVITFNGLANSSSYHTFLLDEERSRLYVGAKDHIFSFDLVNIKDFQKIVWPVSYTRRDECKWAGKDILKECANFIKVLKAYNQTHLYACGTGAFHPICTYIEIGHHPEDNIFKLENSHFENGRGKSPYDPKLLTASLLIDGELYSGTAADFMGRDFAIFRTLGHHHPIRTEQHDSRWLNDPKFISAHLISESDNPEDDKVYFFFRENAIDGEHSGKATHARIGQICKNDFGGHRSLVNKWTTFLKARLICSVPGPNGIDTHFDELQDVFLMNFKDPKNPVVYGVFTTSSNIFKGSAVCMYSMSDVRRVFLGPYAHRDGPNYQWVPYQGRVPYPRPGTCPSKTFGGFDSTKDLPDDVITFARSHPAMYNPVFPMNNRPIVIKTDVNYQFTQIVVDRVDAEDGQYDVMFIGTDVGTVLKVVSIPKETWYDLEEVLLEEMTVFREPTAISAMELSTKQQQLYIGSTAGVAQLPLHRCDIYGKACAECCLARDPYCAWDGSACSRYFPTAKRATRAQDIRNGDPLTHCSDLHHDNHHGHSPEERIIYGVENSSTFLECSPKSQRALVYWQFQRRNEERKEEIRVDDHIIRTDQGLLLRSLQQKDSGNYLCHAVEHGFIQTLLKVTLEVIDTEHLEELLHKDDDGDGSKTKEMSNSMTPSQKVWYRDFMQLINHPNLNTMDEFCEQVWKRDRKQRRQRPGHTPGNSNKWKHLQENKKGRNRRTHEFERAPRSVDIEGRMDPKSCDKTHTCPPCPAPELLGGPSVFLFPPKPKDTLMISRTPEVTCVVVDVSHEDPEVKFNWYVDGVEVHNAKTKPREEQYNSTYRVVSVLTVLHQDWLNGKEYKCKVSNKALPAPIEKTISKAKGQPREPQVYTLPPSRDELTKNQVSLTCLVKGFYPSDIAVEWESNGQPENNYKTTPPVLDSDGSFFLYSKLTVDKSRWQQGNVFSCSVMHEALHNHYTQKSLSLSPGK

Binder	EC50 (pM), HUVEC repulsion assay, second experiment [1] [pM]	Kd [2] [nM]	Ratio ELISA binding TPP-13211/TPP-19068 [3]	EC50 (nM), GCC assay [4] [nM]	EC50 (pM), HUVEC repulsion assay [5] [pM]
TPP-30788 (antibody, human IgG1, kappa, V domains shown, prior art, WO 2020/225400; also called BI clone I; Böhringer (BI) Clone I) VH: EVQLVESGGGLVQPGGSLRLSCAASGFTFSSYYMSWVRQAPGKGLEWVSTIIKSGGYAYYPDSVKDRFTISRDNSKNTLYLQMSSLRAEDTAVYYCVRGGQGAMDYWGQGTTVTVSS VL: EIVLTQSPATLSLSPGERATLSCRASQSIGDYLHWYQQKPGQAPRLLIKYASQSISGIPARFSGSGSGTDFTLTITSLEPEDFAVYYCQQGYSFPYTFGGGTKLEIKR	104	0.098	0.19		
TPP-30789 (antibody, human IgG1, kappa, V domains shown, prior art, WO 2020/225400; also called BI clone II; Böhringer (BI) Clone II) VH: EVQLVESGGGLVQPGGSLRLSCAASGFPFSSYYMSWVRQAPGKGLEWVSTIIKSGGYAYYPDSVKDRFTISRDNSKNTLYLQMSSLRAEDTAVYYCVRGGQGAMDYWGQGTTVTVSS VL: EIVLTQSPATLSLSPGERATLSCRASQSIGDYLHWYQQKPGQAPRLLIKYASQSISGIPARFSGSGSGTDFTLTITSLEPEDFAVYYCQQGYSFPYTFGGGTKLEIKR	165		0.2		
TPP-30791 (antibody, human IgG1, kappa, V domains shown, prior art, WO 2020/225400; also called BI clone IV; Böhringer (BI) Clone IV) VH: EVQLVESGGGLLQLGGSLRLSCAASGFTFSSYYMSWVRQAPGKGLEWVSTIIKSGGYAYYPDSVKDRFTISRDNSKNTLNLQMNSLRAEDTAVYYCVKGGQGAMDYWGQGTTVTVSS VL: EIVLTQSPATLSLSPGERATLSCRASQSIGDYLHWYQQKPGQAPRLLIKYASQSISGIPARFSGSGSGTDFTLTISSLEPEDFAVYYCQQGYSFPYTFGGGTKLEIKR	221		0.21		
TPP-30790 (antibody, human IgG1, kappa, V domains shown, prior art, WO 2020/225400; also called BI clone III; Böhringer (BI) Clone III) VH: EVQLVESGGGLVQLGGSLRLSCAASGFTFSSYYMSWVRQAPGKGLEWVSTIIKSGGYAYYPDSVKDRFTISRDNSKNTLYLQMNSLRAEDTAVYYCVKGGQGAMDYWGQGTTVTVSS VL: EIVLTQSPATLSLSPGERATLSCRASQSIGDYLHWYQQKPGQAPRLLIYYASQSISGIPARFSGSGSGTDFTLTISSLEPEDFAVYYCQQGYSFPYTFGGGTKLEIKR	121		0.19		
TPP-17755 (antibody, human IgG1, lambda, V domains shown, also called Samsung; Samsung Prior Art F11) VH: EVQLLESGGGLVQTGGSLRLSCAASGFTFSDYAMSWVRQAPGKGLEWVSWIYYDSGSKYYADSVKGRFTISRDNSKNTLYLQMNSLRAEDTAVYYCAKLNGDFDYWGQGTLVTVSS VL: QSVLTQPPSASGTPGQRVTISCSGSSSNIGNNDVSWYQQLPGTAPKLLIYADSHRPSGVPDRFSGSKSGTSASLAISGLRSEDEADYYCGAWDSSLSGYVFGGGTKLTVLG	2790	6.2		52.7	
TPP-23337 (antibody, human IgG4 S228P, lambda, V domains shown) VH: EVQLLESGGGLVQPGGSLRLSCAASGFTFSSYAMSWVRQAPGKGLEWVSAIGYGGDTYYADSVKGRFTISRDNSKNTLYLQMNSLRAEDTAVYYCARRDDYTSRDAFDYWGQGTLVTVSS VL: not shown				2.12	170
TPP-23375 (antibody, human IgG4 S228P, lambda, V domains shown) VH: EVQLLESGGGLVQPGGSLRLSCAASGFTFYSYAMSWVRQAPGKGLEWVSAIGYGGDTYYADSVKGRFTISRDNSKNTLYLQMNSLRAEDTAVYYCARRDDYTSRDAFDYWGQGTLVTVSS VL: not shown					123
TPP-23298 (antibody, human IgG4 S228P, lambda, V domains shown) VH: EVQLLESGGGLVQPGGSLRLSCAASGFTFYSYAMSWVRQAPGKGLEWVSAIGTGGDTYYADSVKGRFTISRDNSKNTLYLQMNSLRAEDTAVYYCARRDDYTSRDAFDYWGQGTLVTVSS VL: not shown	54	0.13	0.66	2.4	80
TPP-23340 (antibody, human IgG4 S228P, lambda, V domains shown) VH: EVQLLESGGGLVQPGGSLRLSCAASGFTFSSYAMSWVRQAPGKGLEWVSAIGYGGDTYYADSVKGRFTISRDNSKNTLYLQMNSLRAEDTAVYYCARRDDYTSRDAFDYWGQGTLVTVSS VL: not shown					180
TPP-23373 (antibody, human IgG4 S228P, lambda, V domains shown) VH: EVQLLESGGGLVQPGGSLRLSCAASGFTFYSYAMSWVRQAPGKGLEWVSAIGYGGDTYYADSVKGRFTISRDNSKNTLYLQMNSLRAEDTAVYYCARRDDYTSRDAFDYWGQGTLVTVSS VL: not shown					180
TPP-23341 (antibody, human IgG4 S228P, lambda, V domains shown) VH: EVQLLESGGGLVQPGGSLRLSCAASGFTFSSYAMSWVRQAPGKGLEWVSAIGYGGDTYYADSVKGRFTISRDNSKNTLYLQMNSLRAEDTAVYYCARRDDYTSRDAFDYWGQGTLVTVSS VL: not shown					113
TPP-23334 (antibody, human IgG4 S228P, lambda, V domains shown) VH: EVQLLESGGGLVQPGGSLRLSCAASGFTFSSYAMSWVRQAPGKGLEWVSAIGYGGDTYYADSVKGRFTISRDNSKNTLYLQMNSLRAEDTAVYYCARRDDYTSRDAFDYWGQGTLVTVSS VL: not shown				2.24	120
TPP-23374 (antibody, human IgG4 S228P, lambda, V domains shown) VH: EVQLLESGGGLVQPGGSLRLSCAASGFTFYSYAMSWVRQAPGKGLEWVSAIGYGGDTYYADSVKGRFTISRDNSKNTLYLQMNSLRAEDTAVYYCARRDDYTSRDAFDYWGQGTLVTVSS VL: not shown				2.19	77
TPP-11489 (antibody, human IgG1, lambda, human IgG1; also called Chiome; Chiome Prior Art (hIgG1)) heavy: not shown light: SYELTQPPSVSVSPGQTARITCSGGGSYTGSYYYGWYQQKPGQAPVTVIYYNNKRPSDIPERFSGSLSGTTNTLTISGVQAEDEADYYCGSADNSGDAFGTGTKVTVLGQPKAAPSVTLFPPSSEELQANKATLVCLISDFYPGAVTVAWKADSSPVKAGVETTTPSKQSNNKYAASSYLSLTPEQWKSHRSYSCQVTHEGSTVEKTVAPTECS	> 20000				
